The results in this text go back to patent US20210062171A1, “NOVEL SIALIDASES AND USES THEREOF” (The Regents of the University of California, priority 2019, published 2021).

Entries after “also recorded” stand apart in the source; their conditions may differ.

Holding throughout (format): biochemical
The nature of test [1]: Fluorogenic sialidase assay with 4MU-α-Neu5Gc. The settings on record: for Hydrolysis of 4MU-α-Neu5Gc: compost metagenomic fosmid clones in E. coli, fluorescence λex=365 nm, λem=445 nm; for Preference for Neu5Gc hydrolysis compared to known bacterial exo-sialidases: in vitro, 4MU-α-Neu5Gc versus 4MU-α-Neu5Ac, comparators Au, Cp, Mv, St, Vc sialidases. An excerpt:
To determine if Neu5Gc-specific sialidases are restricted to enteric bacteria, we utilized functional metagenomic screening to identify exo-sialidases with a Neu5Gc specificity in a terrestrial environment. A fosmid library containing ˜40 kb inserts of total environmental DNA isolated from soil from an organic composting facility was constructed in E. coli Lysates from 5,376 clones were screened for hydrolysis of 4MU-α-Neu5Gc. During environmental DNA extraction 100, environmental samples 102 are collected and environmental DNA 104 is extracted. DNA extraction is followed by metagenomics library production 110 where fosmid vectors 112 are ligated with environmental DNA to produce plasmids 114 that are transfected into E. coli cells 116. During functional screening 120, one clone 122 is present per well in a well plate and hits 124 are selected by a means known in the art. Following functional screening 120, hits 132 are sequenced during a sequencing step 130 using any method for sequencing known in the art. Gene prediction and database comparison 140 is used to identify enzyme candidates 142; the enzyme candidates are expressed and characterized 150 in plasmids 152, which are transfected into E. coli and expressed as enzymes 154 for further characterization and/or use.
(§1) Following the enzyme selection process, clones showing activity were tested subsequently and re-tested for their ability to cleave 4MU-α-Neu5Ac. […] The DNA sequence of cloned inserts from C19 and C22 each encoded a single bacterial sialidase gene.
(§2) The compost metagenomic library (theoretically encoding ˜215,000 environmental genes) was differentially screened with fluorogenic 2′-(4-methylumbelliferyl)-α-D-N-glycolylneuraminic acid (4MU-α-Neu5Gc) (Sussex Research, Ottawa, CA) and 2′-(4-methylumbelliferyl)-α-D-N-acetyineuraminic acid 4MU-α-Neu5Ac (Toronto Research Chemicals, Toronto, CA) substrates. In a primary screen, library clones were grown in 384-well plates containing 50 μL LB liquid cultures (10 g tryptone. 5 g yeast extract, 10 g NaCl, 1 g dextrose, 1 g MgCl2-6H2O, 2 mL of 2M NaOH per liter, containing chloramphenicol 12.5 μg/mL and 1× inducing solution (Lucigen Corporation)) overnight at 37° C. Fifty microliters of Y-per lysis buffer (Thermo Fischer Scientific, Waltham, Mass.) containing 40 μg/mL of 4MU-α-Neu5Gc was added to each well. The mixtures were incubated overnight at 37° C. in a static incubator. Fluorescence at λex=365 nm and λem=445 nm was read with a SpectraMax Plus 384 Microplate Reader (Molecular Devices, Sunnyvale, Calif.) at 6 h, 24 h and 48 h. Positive clones were defined as those showing fluorescence greater than 3 standard deviations above the mean background, and each was re-archived in a fresh 384-well plate in sterile 20% (v/v) glycerol. […]

A short description of test [2]: Fluorogenic sialidase assay with 4MU-α-Neu5Ac. To be noted: compost metagenomic fosmid clones in E. coli, fluorescence λex=365 nm, λem=445 nm. The method, then: as §1
as §2, with “Fifty microliters of Y-per lysis buffer (Thermo Fischer Scientific, Waltham, Mass.) containing 40 μg/mL of 4MU-α-Neu5Gc was added to each well. The mixtures were incubated overnight at 37° C. in a static incubator.” left out

Test [3] can be described thus: In vitro sialidase activity assay on mixed WT and Cmah−/− mouse serum (DMB derivatization, HPLC). The settings on record: purified enzyme 0.5-10 μg; pH 6.5, 7.0 and 8.0; 1 hour at 37° C. As to the method:
Bin13 sialidases were tested for Neu5Gc release. Each of the five sialidases genes in bin13 were PCR amplified (FIG. 12) and heterologously expressed in vitro, purified, and assayed for its substrate preference. Sialidase activity measurements were performed using different enzyme concentrations (0.5-10 μg) at three different pH levels (6.5, 7.0, and 8) (FIGS. 3A, 13). […] Additionally, we tested in vivo sialidase activity in fresh fecal samples. Clarified fecal pellets from mice fed with PSM tend to preferentially release Neu5Gc compared to clarified fecal pellets from mice fed with Soy (FIG. 3D).
Sialidases purified as described above were quantified using SDS-PAGE image analysis with BSA references (Bio-Rad) and absorbance using the Nanophotometer P330 (Implen), with extinction coefficients calculated using ExPASy Translate. […] The samples were kept at −20° C. until derivatization and analyzed by HPLC as described below. […] The DMB-derivatized samples were analyzed on a Dionex Ultra3000 HPLC System using a Phenomenex Gemini 5μ C18 250×4.6-mm HPLC column at room temperature, eluted in isocratic mode with 85% water, 7% methanol, 8% acetonitrile. […]

Test [4] can be described thus: Sialidase activity on food sources (Neu5Gc release). The settings on record: 2 μg enzyme, 2 h at 37° C., Tris-HCl pH 7; beef, pork, PSM chow. An excerpt: Fecal shotgun metagenomes from the Hadza people (Table 4), a genetically distinct indigenous ethnic group that resides in remote Tanzania was reanalyzed. The Hadza are hunter-gatherers and change their diet periodically throughout the year according to food availability. In dry seasons, their diet is enriched in meat and tubers, whereas in wet seasons it consists largely of honey and berries. Raw reads from Hadza metagenomes were mapped to bin13. […] To evaluate the sialidases genes present in the Hadza microbiome, the combined metagenomes were co-assembled and 24 genome bins containing 51 sialidase genes were identified (FIG. 17, Table 5). The binHz19, whose closest relative was Alistipes sp., was equally abundant in microbiomes from both seasons (FIG. 2B, Table 5). […] This difference supports the notion that sialidaseHz136 is capable of metabolizing structurally diverse glycans, a concept that would be of benefit to an individual with seasonal variations in diet. To additionally determine if sialidase26 and sialidaseHz136 can release Neu5Gc from food sources directly, we test their activity on beef, pork, and PSM chow as substrate.
Beef (New York Steak) and pork (breakfast sausage) were purchased at Whole Foods Market and cut in small pieces using sterile blades. PSM chow was powdered using mortar and pestle. […]

B1: C22: GH33 exo-sialidase from compost soil metagenomic fosmid clone C22, SEQ ID NO. 8 (protein)
chain: MVIAWMAGVQCTAAALVDLGVTILDISGEPERQVIVDREPGQYLGHVSTVLLEDDKTILAVYPKGHGRGAIVLKRSEDGGRTWSGRLPVPASWATSKETPTIHRVVDARGRRRLLLWSGLYPARRALSDDDGRTWTELEPVGEWGGIVVMGFVEATRQPGHYVAMFHDDGRYFAAQPSTNRSMTLYLTRSSDGGVSWSSPVAVWSNSAVHLCEPGGIWSPDRRRLAVLLRENRRVNNSHIMFSDDEGHTWTTPVEMPLSRAGDRHTLRYTPDGRIVCVFRAVTPVGMRGRSFGQNEDVDTLGVGSPFEGDCVAWVGTWDDLVHNRPGQYYVRLLNNRKGWDTTYPGVEVLPDGTVVVTTYGHWNAGEPPYIRSVRFRLEELDRMAAKASQKP
modifications: Environmental sample
Consider B1, for which, in test [1], the “Hydrolysis of 4MU-α-Neu5Gc” value is on record as “significant hydrolysis; also recorded: significant activity” and the “Preference for Neu5Gc hydrolysis compared to known bacterial exo-sialidases” value was “marked preference for Neu5Gc hydrolysis”. Besides, the “Activity on 4MU-α-Neu5Ac” value in test [2] is given as “only minor activity”.

B2: sialidaseHz136: Sialidase from binHz19 of Hadza shotgun metagenome, SEQ ID NO. 6, PDB 6MNJ (protein)
chain: MMKRTFWLIALSLLSLTLSASDSLRIHNPQIPILLDRMDNVLFLIRVPDAVQGNVLESLTVEFGPDTDLNSIAELRLFYSGTEAVRRQGLRFSPVEYISAHNVWNTRSANPSYSVMQEQASKIGRKVVLHSRQPMVGGINYYWVSVRMNPDASLLTELRARVSEVVVNGKKIPVACDSREVVRRMGYGVRHAGDDHSMAYRIPGLVTTNSGSLIGTYDVRWNSSVDLQERIDIGVSRSTDKGQTWEPMRIAMSFADIDGLPSGQNGVGDPAVLVDEKTGTIWVMAAWTHGMGNGRAWTNSMPGMEPMETPQLMLARSDDDGRTWSEPINITKQVKDPSWCFLLQGPGRGITMRDGTLVFAIQFIDKDRMPHAGIIFSKDHGETWHIHNPARSNTTEAQVAEVEPGVLMLNMRDNRGGARAVMTTRDLGRTWTEHVSHRTTLREPVCMASLIAVPAEKNVLGKDLLLFSNPDTTDGRRDITIKASLDGGVTWPYSLLLDEGDSWGYSCLTMIDSQTVGILYESSVAHITFQAAKLKAIVK
modifications: Environmental sample
notes: 6, PDB 6MNJ
As for B2, the “Substrate preference, Neu5Gc versus Neu5Ac release” value in test [3] was “preferential activity for Neu5Gc over Neu5Ac in all tested conditions”. In addition, the “Release of Neu5Gc from food” value in test [4] was “pronounced sialidase activity by releasing Neu5Gc from all food tested”.

B3: sialidase26: Bin13 GH33 sialidase from mouse gut metagenome, SEQ ID NO. 4, PDB 6MRX (protein)
chain: MKKNLFLSIIFSFCVILQAFASDTVFVRETQIPVLIERQDNVLFMLRLNAKESHTLDEVVLNFGKDVNMSDIQSVKLYYSGTEARQNYGKNFFAPVSYISSHTPGKTLAANPSYSINKSQVNNPKRKVALKANQKLFPGINYFWISLQMKPDASLLDKVAAKIAAIKVDNKEALMHTVSPENIVHRVGVGVRHAGDDGSASFRIPGLVTTNKGTLLGVYDVRYNNSADLQEHVDIGLSRSVDGGKTWEKMRLPLAFGETGDLPAAQNGVGDPSILVDTKTNTVWVVAAWTHGMGNQRAWWSSYPGMDMNHTAQLVLSKSTDDGKTWSKPINITEQVKDPSWYFLLQGPGRGITMQDGTLVFPIQFIDSTRVPNAGIMYSKDRGETWKIHNYARTNTTEAQVAEVEPGVLMLNMRDNRGGSRAISTTKDLGKTWTEHSSSRKALQEPVCMASLISVKAKDNVLNKDILLFSNPNTVKGRHHITIKASLDGGVTWLPEHQVMLDEGEGWGYSCLTMIDKETIGILYESSVAHMTFQAVQLRDIIK
modifications: Environmental sample
notes: 4, PDB 6MRX
On to B3, for which the “Substrate preference, Neu5Gc versus Neu5Ac release” value in test [3] is listed as “preference for Neu5Gc”. In test [4], the “Release of Neu5Gc from food” value is listed as “pronounced sialidase activity by releasing Neu5Gc from all food tested”.

B4: C19: GH33 exo-sialidase from compost soil metagenomic fosmid clone C19, SEQ ID NO. 7 (protein)
chain: MKRTGWLLLLVSGPALCQPPRGYSIPLIDLAAEAWRQTVVDREPGQYLGHPTTVLLEDGRTVLAVYPKGHGRGAIVYKRSRDGGRTWSARLPVPENWATSQETPTIHRVVDPRGRKRLILFSGLYPIRMSVSEDDGETWTPLAPIGNFGGVVAMASVERLRDGRYMALFHDDGRFLRGGGKPDRFVVYKTLSGDGGLTWSEPVPILSHPQAHLCEPGLLRSPDGRRIAILLRENSRKFNSFVSFSDDEGETWSEPRELPGALTGDRHTAVYARDGRLFISFRDTTHESPTRGDWVAWVGRFGDIENGREGQYRVRLMKNHKDLDCCYPGVLRLPDDTILTTTYGHWTPGEPPYIVSIRLRLSELDRRAQGAGR
modifications: Environmental sample
Take B4: in test [1], the “Hydrolysis of 4MU-α-Neu5Gc” value is listed as “significant hydrolysis; also recorded: significant activity” and the “Preference for Neu5Gc hydrolysis compared to known bacterial exo-sialidases” value is “marked preference for Neu5Gc hydrolysis”. The “Activity on 4MU-α-Neu5Ac” value in test [2] was “only minor activity”.
